This note sets out measurements from the nanobody polyreactivity screen of Harvey et al. (2022).

The series in a line: yeast display, Sf9 membrane polyspecificity reagent, FACS + sequencing; frameworks hold sequencing errors. Put shortly: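 Using colony PCR, genes from sorted yeast display clones were amplified, then sequenced on MiSeq at 2 × 250 and filtered by CDR length. The clones had been stained with 10% biotinylated, detergent-solubilized Sf9 membrane reagent for 1 hour at 4 °C and sorted by FACS into low and high (top ~1%) gates on anti-HA and streptavidin fluorescence. Polyreactivity labels come from the gate of origin.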
For “QVQLVESGGGLVQAGGSLRLSCAASGRIFRGNAMGWYRQAPGKERELVAAINYSGGSTYYADSVKGRFTISRDNAKNTVYLQMNSLKPEDTAVYYCAAEPGQYGWYYGYGYWGQGTQVTVSS”, the “polyreactivity (PSR sort gate)” value is given as “high polyreactivity”.

Turning to “QVQLVESGGGLVQAGGSLRLSCAASGRIFRGNTMGWYRQAPGKERELVAAITIRGRTYYADSVKGRFTISRDNAKNTVYLQMNSLKPEDTAVYYCAVASAGDNDYWGQGTQVTVSS”, the “polyreactivity (PSR sort gate)” value was “low polyreactivity”.

With “QVQLVESGGGLVQAGGSLRLSCAASGRIFRGYAMAWYRQAPGKERELVAAISGRGGRTNYADSVKGRFTISRDNAKNTVYLQMNSLKPEDTAVYYCATVPYTASRYEYWGQGTQVTVSS”, the “polyreactivity (PSR sort gate)” value is reported as “high polyreactivity”.

As for “QVQLVESGGGLVQAGGSLRLSCAASGRIFRGYAMGWYRQAPGKEREFVAAITKNGGSTYYADSVKGRFTISRDNAKNTVYLQMNSLKPEDTAVYYCNAGTFTRRRGLDYWGQGTQVTVSS”, the “polyreactivity (PSR sort gate)” value is listed as “low polyreactivity”.

For the sequence “QVQLVESGGGLVQAGGSLRLSCAASGRIFRGYAMGWYRQAPGKERELVAAIDRVGRTKYADSVKGRFTISRDNAKNTVYLQMNSLKPEDTAVYYCAAKASRVDWGYGYWGQGTQVTVSS”, the “polyreactivity (PSR sort gate)” value is recorded as “high polyreactivity”.

Consider “QVQLVESGGGLVQAGGSLRLSCAASGRIFRGYAMGWYRQAPGKERELVAAISGSGGSTYYADSVKGRFTISRDNAKNTVYLQMNSLKPEDTAVYYCAADQQSTGDWAGDYWGQGTQVTVSS”, for which the “polyreactivity (PSR sort gate)” value is recorded as “low polyreactivity”.

In the case of “QVQLVESGGGLVQAGGSLRLSCAASGRIFRHKAMGWYRQAPGKETELVAAITSRGGTYYADSVKGRFTISRDNAKNTVYLQMNSLKPEDTAFYFCNADQALYSSGNKYDYWGQGTQVTVSS”, the “polyreactivity (PSR sort gate)” value was “low polyreactivity”.

For “QVQLVESGGGLVQAGGSLRLSCAASGRIFRHNAMGWYRQAPGKESELVAAISGGGTTYYADSVKGRFTISRDNAKNTVYLQMNSLKPEDTAVYYCAARRRGSVGVGYAYPYNYWGQGTQVTVSS”, the “polyreactivity (PSR sort gate)” value is given as “high polyreactivity”.

For “QVQLVESGGGLVQAGGSLRLSCAASGRIFRHNTLGWYRQAPGKEREFVAAISRNGGITYYADSVKGRFTISRDNAKNTVYLQMNSLKPEDTAVYYCNAYTYRQNDYWGQGTQVTVSS”, the “polyreactivity (PSR sort gate)” value is “high polyreactivity”.

On to “QVQLVESGGGLVQAGGSLRLSCAASGRIFRHYAMGWYRQAPGKERELVAAINWNGGSTYYADSVKGRFTISRDNAKNTVYLQMNSLKPEDTAVYYCAARYRYVRGMDYWGQGTQVTVSS”, for which the “polyreactivity (PSR sort gate)” value is recorded as “high polyreactivity”.

Take “QVQLVESGGGLVQAGGSLRLSCAASGRIFRKNVMGWYRQAPGKERELVAAITTRGGSTYYADSVKGRFTISRDNAKNTVYLQMNSLKPEDTAVYYCATRVQWNSRYDYWGQGTQVTVSS”: the “polyreactivity (PSR sort gate)” value is on record as “high polyreactivity”.

Consider “QVQLVESGGGLVQAGGSLRLSCAASGRIFRKYAMGWSRQAPGKERELVAAISVGGGSTRYADSVKGRFTISRDNAKNTVYLQMNSLKDEDTAVYYCAADWAYYVASYLYYTFDYWGQGTQVTVSS”, for which the “polyreactivity (PSR sort gate)” value is given as “low polyreactivity”.

As for “QVQLVESGGGLVQAGGSLRLSCAASGRIFRLYAMGWYRQAPGKERELVAAIRASGGNTYYADSVKGRFTISRDNAKNTVYLQMNSLKPEDSAVYYCAADYWSRYYTVPEWYNYWGQGTQVTVSS”, the “polyreactivity (PSR sort gate)” value is reported as “high polyreactivity”.

Turning to “QVQLVESGGGLVQAGGSLRLSCAASGRIFRLYAMGWYRQAPGKERELVAAISKSGGSTYYADSVKGRFTFSRDNAKNTVYLQMNSLKPEDTAVYYCAADYRTHGGYEGTFDYWGQGTQVTVSS”, the “polyreactivity (PSR sort gate)” value is reported as “low polyreactivity”.

Regarding “QVQLVESGGGLVQAGGSLRLSCAASGRIFRLYAMGWYRQAPGKERELVAAISKSGGSTYYADSVKGRFTISRDTATNTVYLQMNSLKPEDTAVYYCAADYRTHGGYEGTFDYWGQGTQVTVSS”, the “polyreactivity (PSR sort gate)” value is given as “low polyreactivity”.

As for “QVQLVESGGGLVQAGGSLRLSCAASGRIFRNYAMGWYRQAPGKERELVAAISGNGGNTYYADSVKGRFTISRDNAKNTVYLQMNSLKPEDTAVYYCNAYHWLYSYRYSRTYDYWGQGTQVTVSS”, the “polyreactivity (PSR sort gate)” value is recorded as “high polyreactivity”.

In the case of “QVQLVESGGGLVQAGGSLRLSCAASGRIFRPYAMGWYRQAPGKEREFVAAITQSGGITSYADSVKGRFTISRDNAKNTVYLQMNRLKPEDTAVYFCATTSRYTRSHYDWYDYWGQGTQVTVSS”, the “polyreactivity (PSR sort gate)” value was “low polyreactivity”.

As for “QVQLVESGGGLVQAGGSLRLSCAASGRIFRPYAMGWYRQAPGKEREFVATIRFTTGRTYYADSVKGRFTISRDNAKNTVYLQMNSLKPEDTAVSYFAADFAFVNYAKISYTTHDYWGQGTQVTVSS”, the “polyreactivity (PSR sort gate)” value was “high polyreactivity”.

As for “QVQLVESGGGLVQAGGSLRLSCAASGRIFRPYAMGWYRQAPGKERELVARINGSGGSTYYADSVKGRFTISRDTAKNTVYFQMNSLKPEDTAVYYCNVRRIIRYLGYTHTKISWLDYWGQGTQVTVSS”, the “polyreactivity (PSR sort gate)” value is on record as “high polyreactivity”.

Regarding “QVQLVESGGGLVQAGGSLRLSCAASGRIFRQNVMGWYRQAPGKERELVAGISRSGSGTRYADSVKGRFTISRDNAKNTVYLQMNSLKPEDTAVYYCNTLVPFSTWRYGYWGQGTQVTVSS”, the “polyreactivity (PSR sort gate)” value is “high polyreactivity”.

On to “QVQLVESGGGLVQAGGSLRLSCAASGRIFRQYTMGWNRQAPGKERELVAAITGTRGSTYYADSVKGRFTISRDNAKNTVYLQMNSLKPVDTAVYSCDADYSARYGYWGQGTQVTVSS”, for which the “polyreactivity (PSR sort gate)” value is given as “high polyreactivity”.

Take “QVQLVESGGGLVQAGGSLRLSCAASGRIFRRNAMGWYRPAPGKERELVAGITWSGGTTYYADSVKGRFTISRDNAKNTVYLQMNSLKPEDTAVYYCNAGRSKWLSRYDYWGQGTQVTVSS”: the “polyreactivity (PSR sort gate)” value is “high polyreactivity”.

On to “QVQLVESGGGLVQAGGSLRLSCAASGRIFRRNAMGWYRQAPGKEREFVAAITSSGDSTNYADSVKGRFTISRDNAKNTVYLQMNSLKPEDTAVYYCAADWARSALQGFYYWGQGTQVTVSS”, for which the “polyreactivity (PSR sort gate)” value was “low polyreactivity”.

“QVQLVESGGGLVQAGGSLRLSCAASGRIFRRNAMGWYRQAPGKEREFVATITSGGSTFYADSVKGRFTISRDNAKNTVYLQMNSLKPEDTAVYYCAAPSYNTPFHTPNYSWGQGTQVTVSS”: the “polyreactivity (PSR sort gate)” value is given as “low polyreactivity”.

Regarding “QVQLVESGGGLVQAGGSLRLSCAASGRIFRRNAMGWYRQAPGKERELVAAITSSGGNTYYADSVKGRFTISRDNAKNTVYLQMNSLKPEDTAVYYCAAELRPYITYDGPRKKFYYWGQGTQVTVSS”, the “polyreactivity (PSR sort gate)” value is on record as “high polyreactivity”.

On to “QVQLVESGGGLVQAGGSLRLSCAASGRIFRRNTMGWSRPAPGTERELVAAITSRGGSTYYADSVKGRFTISRDNAKNTVYLQMNSLKPADTAVYYCNTRVVPEIYDYWGQGTQVTVSS”, for which the “polyreactivity (PSR sort gate)” value was “high polyreactivity”.

On to “QVQLVESGGGLVQAGGSLRLSCAASGRIFRRYAMGCYIQAPGKERELVAGITGSGTSTYYADSVKGRFTISRDNAKNTVYLQMNSLKPEDTAVYYCAADRGRGYRYNYWGQGTQVTVSS”, for which the “polyreactivity (PSR sort gate)” value was “high polyreactivity”.

“QVQLVESGGGLVQAGGSLRLSCAASGRIFRRYAMGWYRQAPGKERELVAAISSRGGSTYYADSVKGRFTISRDNAKNTVYLQMNSLKPEDTAVYYCNADVSASEYDYWGQGTQVTVSS”: the “polyreactivity (PSR sort gate)” value is on record as “high polyreactivity”.

Regarding “QVQLVESGGGLVQAGGSLRLSCAASGRIFRRYAMGWYRQAPGKERELVAAITRSGGSTYYADSVKGRFTISRDNAKNTVYLQMNSLKPEDTAVYYCNAPSSLGTDYDYWGQGTQVTVSS”, the “polyreactivity (PSR sort gate)” value is listed as “high polyreactivity”.

Consider “QVQLVESGGGLVQAGGSLRLSCAASGRIFRRYAMGWYRQAPGKERELVASISSGGSTNYADSVNGRFTISRDNAKNTVYLQMNSLKPEDTAVYYCAASYPSIYYYRYDYWGKGTQVTVSS”, for which the “polyreactivity (PSR sort gate)” value is “high polyreactivity”.

On to “QVQLVESGGGLVQAGGSLRLSCAASGRIFRRYAMGWYRQAPGKERELVATISRGGSNTSYADSVKGRFTISRDNAKNTVYLQMNSLKPEDSAVYYCAKGSVRYYVGFDYWGQGTQVTVSS”, for which the “polyreactivity (PSR sort gate)” value is listed as “high polyreactivity”.

“QVQLVESGGGLVQAGGSLRLSCAASGRIFRRYARGWYRQAPGKERELVATISRGGSNTSYADSVKGRFTISRDNAKNTVYLQMNSLKPEDTAVYYCAKGSVRYYVGYDYWGQGTQVSVSS”: the “polyreactivity (PSR sort gate)” value is “high polyreactivity”.

Take “QVQLVESGGGLVQAGGSLRLSCAASGRIFRRYTIGWYRQAPGKEWELVAGISSGGSTKYADSVKGRFTISRDNAKNTVYLQMNSLKPEDTAVYYCNRRCPIYGSRFGYYYWGQGTQVTVSS”: the “polyreactivity (PSR sort gate)” value was “high polyreactivity”.

As for “QVQLVESGGGLVQAGGSLRLSCAASGRIFRSNAMGWYRQAPGKERELVAAISSNGGSTYYADSVKGRFTISRDNAKNPVYLQMNSLKPEDTAVYYCAARVYYPVRYGYWGQGTQVTVSS”, the “polyreactivity (PSR sort gate)” value is recorded as “high polyreactivity”.

As for “QVQLVESGGGLVQAGGSLRLSCAASGRIFRSYAMGWYRQAPGKDRELVAAISSGDTTNYADSVKGRFTISRDNAKNTVYLQMNSLKPEDTAVYYCAAGFYYRGGYIQYEMNYWGQGTQVTVSS”, the “polyreactivity (PSR sort gate)” value is recorded as “high polyreactivity”.

Take “QVQLVESGGGLVQAGGSLRLSCAASGRIFRSYAMGWYRQAPGKERELVAAINYGGTSTYYADSVKGRFTISRDNAKNTVYLQMNSLKPEDTAVYYCAARRPTSPRRYESRGQGTQVTVSS”: the “polyreactivity (PSR sort gate)” value is “high polyreactivity”.

For “QVQLVESGGGLVQAGGSLRLSCAASGRIFRSYAMGWYRQAPGKERELVAAISQRGGRTYYADSVKGRFTISRDNAKNTVYLQMNSLKPEDTAVYYCAKSNPKLGYYYLQGDLYDYWGQGTQVTVSS”, the “polyreactivity (PSR sort gate)” value is recorded as “low polyreactivity”.

With “QVQLVESGGGLVQAGGSLRLSCAASGRIFRSYAMGWYRQAPGKERELVAAISQRGGSTYYADSVKGRFTISRDNAKNTVYLQMNSLKPEDTAVYYCNKERRNSGKFDYWGQGTQVTVSS”, the “polyreactivity (PSR sort gate)” value is reported as “high polyreactivity”.

For “QVQLVESGGGLVQAGGSLRLSCAASGRIFRSYAMGWYRQAPGKERELVAAITSGGSTNYADSVKGRFTISRDNAKNTVYLQMNSLKPEDTAVYYCNADRWKSGYWRYDYWGQGTQVTVSS”, the “polyreactivity (PSR sort gate)” value was “low polyreactivity”.

“QVQLVESGGGLVQAGGSLRLSCAASGRIFRTNAMGWYRQAPGKERELVAAITFSGGGTYYADSVKGRFTISRDNAKNTVYLQMNSLKPEDTAVYYCATDWYYEYYYWGQGTQVTVSS”: the “polyreactivity (PSR sort gate)” value is “low polyreactivity”.
